We go through 94 variants from the supplement of paper PMC10567573.

First the molecules themselves.
B1: TPRG1 (parent)
chain: ETIQGFWLLTKIDHWNNEKERILL
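Further: lentivirally expressed fusions sorted by FACS into six bins by GFP to DsRed ratio, PSI derived from sequencing read proportions per bin multiplied by bin number.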

The variants in the data set derive from B1. In words: protein stability index of a GFP-peptide fusion (GPS, HEK-293T) (PSI 1-6); higher = more stable. To be noted: c terminus: a fixed tail appended.
For the variant ETIQGFWLLTKINHWNNEKERILL [D13N], the protein stability index turned out to be 3.41.
For ETIQGFWLLTKIWHWNNEKERILL [D13W], the protein stability index came out at 2.98.
Consider ETIQGFWLLTKIMHWNNEKERILL [D13M], for which the protein stability index is 1.04.
ETIQGFWLLTKIVHWNNEKERILL [D13V]: the protein stability index was found to be 2.29.
Regarding ETIQGFWLLTKIIHWNNEKERILL [D13I], the protein stability index came to 3.03.
On to ETIQGFWLLTKIPHWNNEKERILL [D13P], for which the protein stability index turned out to be 2.19.
With ETIQGFWLLTKITHWNNEKERILL [D13T] the figure was 1.69.
As for ETIQGFWLLTKIQHWNNEKERILL [D13Q], the protein stability index came to 3.45.
With ETIQGFWLLTKIKHWNNEKERILL [D13K] the figure was 3.06; with ETIQGFWLLTKIAHWNNEKERILL [D13A], 3.1; with ETIQGFWLLTKIFHWNNEKERILL [D13F], 2.23.
ETIQGFWLLTKIDHWGNEKERILL [N16G]: the protein stability index was 1.75.
Turning to ETIQGFWLLTKIDHWKNEKERILL [N16K], the protein stability index is 4.29.
With ETIQGFWLLTKIDHWPNEKERILL [N16P] the figure was 2.99; with ETIQGFWLLTKIDHWANEKERILL [N16A], 2.06; with ETIQGFWLLTKIDHWQNEKERILL [N16Q], 1.77.
Consider ETIQGFWLLTKIDHWFNEKERILL [N16F], for which the protein stability index was found to be 2.65.
For the variant ETIQGFWLLTKIDHWTNEKERILL [N16T], the protein stability index came to 3.58.
As to ETIQGFWLLTKIDHWMNEKERILL [N16M], the protein stability index is 1.63.
Turning to ETIQGFWLLTKIDHWINEKERILL [N16I], the protein stability index was determined as 3.07.
With ETIQGFWLLTKIDHWSNEKERILL [N16S], the protein stability index turned out to be 2.12.
Consider ETIQGFWLLTKIDHWENEKERILL [N16E], for which the protein stability index came to 1.92.
Consider ETIQGFWLLTSIDHWNNEKERILL [K11S], for which the protein stability index stood at 1.71.
Then ETIQGFWLLTLIDHWNNEKERILL [K11L], with 1.49.
Then ETIQGFWLLTIIDHWNNEKERILL [K11I], with 2.32.
Consider ETIQGFWLLTPIDHWNNEKERILL [K11P], for which the protein stability index stood at 2.92.
On to ETIQGFWLLTFIDHWNNEKERILL [K11F], for which the protein stability index was found to be 3.4.
ETIQGFWLLTDIDHWNNEKERILL [K11D]: the protein stability index stood at 1.93.
For ETIQGFWLLTYIDHWNNEKERILL [K11Y], the protein stability index turned out to be 4.47.
ETIQGFWLLTWIDHWNNEKERILL [K11W]: the protein stability index came to 2.02.
For the variant ETIQGFWLLTGIDHWNNEKERILL [K11G], the protein stability index is 2.08.
With ETIQGFWLLTAIDHWNNEKERILL [K11A] the figure was 1.85; with ETIQGFWLLTHIDHWNNEKERILL [K11H], 1.76; with ETIQGFWLLTRIDHWNNEKERILL [K11R], 1.54.
For the variant ETIQGFWLLTKTDHWNNEKERILL [I12T], the protein stability index was determined as 1.58.
As to ETIQGFWLLTKRDHWNNEKERILL [I12R], the protein stability index amounted to 1.75.
Turning to ETIQGFWLLTKGDHWNNEKERILL [I12G], the protein stability index was 1.13.
ETIQGFWLLTKADHWNNEKERILL [I12A]: the protein stability index was found to be 3.59.
Then ETIQGFWLLTKKDHWNNEKERILL [I12K], with 2.07.
Consider ETIQGFWLLTKSDHWNNEKERILL [I12S], for which the protein stability index turned out to be 2.09.
ETIQGFWLLTKNDHWNNEKERILL [I12N]: the protein stability index came out at 2.83.
Then ETIQGFWLLTKEDHWNNEKERILL [I12E], with 2.55.
As to ETIQGFWLLTKHDHWNNEKERILL [I12H], the protein stability index turned out to be 1.9.
Take ETIQGFWLLTKCDHWNNEKERILL [I12C]: the protein stability index is 2.08.
For ETIQGFWLLTKMDHWNNEKERILL [I12M], the protein stability index was determined as 3.11.
On to ETIQGFVLLTKIDHWNNEKERILL [W7V], for which the protein stability index stood at 3.28.
Then ETIQGFWLLTKIDHWNKEKERILL [N17K], with 3.22.
ETIQGFWLLTKIDHWNAEKERILL [N17A]: the protein stability index came to 2.33.
With ETIQGFWLLTKIDHWNQEKERILL [N17Q] the figure was 4.24.
On to ETIQGFWLLTKIDHWNCEKERILL [N17C], for which the protein stability index is 2.54.
ETIQGFWLLTKIDHWNSEKERILL [N17S]: the protein stability index is 2.2.
As for ETIQGFWLLTKIDHWNFEKERILL [N17F], the protein stability index amounted to 2.36.
In the case of ETIQGFWLLTKIDHWNTEKERILL [N17T], the protein stability index turned out to be 2.14.
Consider ETIQGFWLLTKIDHWNYEKERILL [N17Y], for which the protein stability index amounted to 3.59.
For the variant ETIQGFWLLTKIDHWNIEKERILL [N17I], the protein stability index worked out at 2.46.
Then ETIQGFWLLTKIDHWNMEKERILL [N17M], with 3.42.
On to ETIQGFWLLTKIDHWNVEKERILL [N17V], for which the protein stability index is 3.23.
Regarding ETIQGFWLLTKIDHWNNEKEHILL [R21H], the protein stability index turned out to be 2.66.
ETIQGFWLLTKIDHWNNEKELILL [R21L]: the protein stability index came out at 2.75.
Take ETIQGFWLLTKIDHWNNEKEEILL [R21E]: the protein stability index was determined as 3.83.
Regarding ETIQGFWLLTKIDHWNNEKEDILL [R21D], the protein stability index came to 1.3.
Then ETIQGFWLLTKIDHWNNEKECILL [R21C], with 3.09; and ETIQGFWLLTKIDHWNNEKEGILL [R21G], with 2.98.
ETIQGFWLLTKIDHWNNEKEIILL [R21I]: the protein stability index was found to be 2.51.
Consider ETIQGFWLLTKIDHWNNEKEKILL [R21K], for which the protein stability index is 1.66.
Consider ETIQGFWLLTKIDHWNNEKETILL [R21T], for which the protein stability index was determined as 2.79.
With ETIQGFWLLTKIDHWNNEKEQILL [R21Q], the protein stability index was found to be 3.52.
With ETIQGFWLLTKIDHWNNEKEPILL [R21P], the protein stability index was 2.58.
ETIQGFWLLNKIDHWNNEKERILL [T10N]: the protein stability index was 1.34.
Consider ETIQGFWLLHKIDHWNNEKERILL [T10H], for which the protein stability index turned out to be 2.31.
For ETIQGFWLLYKIDHWNNEKERILL [T10Y], the protein stability index amounted to 2.44.
Take ETIQGFWLLAKIDHWNNEKERILL [T10A]: the protein stability index stood at 3.73.
As for ETIQGFWLLRKIDHWNNEKERILL [T10R], the protein stability index was 1.01.
With ETIQGFWLLFKIDHWNNEKERILL [T10F] the figure was 1.96; with ETIQGFWLLEKIDHWNNEKERILL [T10E], 2.91.
For ETIQGFWLLSKIDHWNNEKERILL [T10S], the protein stability index turned out to be 2.49.
Take ETIQGFWLLIKIDHWNNEKERILL [T10I]: the protein stability index turned out to be 3.71.
Consider ETIQGFWLLPKIDHWNNEKERILL [T10P], for which the protein stability index was determined as 1.65.
Consider ETIQGFWLLWKIDHWNNEKERILL [T10W], for which the protein stability index stood at 2.45.
With ETIQGFWLLGKIDHWNNEKERILL [T10G], the protein stability index was 2.35.
On to ETIQGFWLLDKIDHWNNEKERILL [T10D], for which the protein stability index is 1.8.
As for ETIQGFWLTTKIDHWNNEKERILL [L9T], the protein stability index stood at 1.33.
On to ETIQGFWLQTKIDHWNNEKERILL [L9Q], for which the protein stability index is 1.65.
Then ETIQGFWLMTKIDHWNNEKERILL [L9M], with 2.1; and ETIQGFWLFTKIDHWNNEKERILL [L9F], with 3.19.
Regarding ETIQGFWLCTKIDHWNNEKERILL [L9C], the protein stability index worked out at 2.35.
Take ETIQGFWLRTKIDHWNNEKERILL [L9R]: the protein stability index came to 1.49.
Take ETIQGFWLITKIDHWNNEKERILL [L9I]: the protein stability index stood at 3.
Consider ETIQGFWLPTKIDHWNNEKERILL [L9P], for which the protein stability index was found to be 2.7.
For ETIQGFWLETKIDHWNNEKERILL [L9E], the protein stability index was 2.2.
Turning to ETIQGFWLNTKIDHWNNEKERILL [L9N], the protein stability index amounted to 1.16.
With ETIQGFWLHTKIDHWNNEKERILL [L9H] the figure was 1.87.
As to ETIQGFWLKTKIDHWNNEKERILL [L9K], the protein stability index stood at 1.54.
For the variant ETIQGFWLSTKIDHWNNEKERILL [L9S], the protein stability index was found to be 2.88.
